Source: patent US20160008427A1 (Genentech, published 2016)
Numbering of substitutions follows the chain as printed. Numbers in names are those of the source. Values belong to the binder of their own block, whether it stands above or below them.

Experiments:
C3b [1] = target: T1, C3b (human, UniProt P01024 23-667; P01024 749-1663); assay: competitive ELISA, column 'Mu Ic50 (nM)'; format of paragraph 183: variant in solution competes with coated huCRIg(L)-LFH for C3b
T1 construct: also called soluble C3b; human C3b
Method: (§1) huCRIg(L)-LFH was diluted to 2μg/mL in PBS, pH 7.4, and coated onto Maxisorp 384-well flat bottom plates (Nunc, Neptune, NJ) by incubating overnight (16-18 hr) at 4° C. (25 ul/well). The plates were washed 3 times in Wash Buffer (PBS, pH7.4, 0.05% Tween 20), and 50 ul/well of Block Buffer (PBS, pH 7.4, 0.5% BSA) was added to each well. The plates were allowed to block for 1-3hr; this and all subsequent incubations were performed on an orbital shaker at room temperature. During the blocking step, C3b (purified at Genentech) was diluted to 20 nM in Assay Buffer (PBS pH7.4, 0.5% BSA, 0.05% Tween-20), and the mutCRlg-huFc molecules were serially diluted in Assay Buffer, over a concentration range of 20,000—0.34 nM. The C3b and mutCRlg-huFc molecules were then mixed 1:1 and allowed to pre-incubate for 0.5-1 hr. The blocked plates were washed three times (as described above), and the C3b:mutCRlg-huFc complexes were added to the reaction plates (25 ul/well). After a 1-2 hr incubation, The ELISA plates were washed three times, (as described above) and plate-bound C3b was detected by the addition of an anti-human C3b antibody (clone 5F202, US Biological, Swampscott, Mass.; 600 ng/mL, 25 ul/well). The plates were incubated for 1-2 hr and washed as described above. HRP-conjugated anti-murine Fc IgG (Jackson ImmunoResearch, West Grove, Pa.) diluted 1:2,000 was then added (25 ul/well), and the plates were incubated for 1-2 hr. After a final wash, 25 ul/well of TMB substrate (Kirkegaard & Perry Laboratories, Gaithersburg, Md.) was added to the ELISA plates. Color development was stopped after approximately 8min by adding 25 ul/well 1.0M phosphoric acid. Absorbance at 450 nm and 650 nm was determined using a SpectraMax 250 microtiter plate reader (Molecular Devices, Sunnyvale, Calif.).

C3b [2] = target: T1, C3b; assay: competitive ELISA (competitive displacement of C3b); format of paragraph 183: variant in solution competes with coated huCRIg(L)-LFH for C3b
Method: as §1, with “HRP-conjugated anti-murine Fc IgG (Jackson ImmunoResearch, West Grove, Pa.) diluted 1:2,000 was then added (25 ul/well), and the plates were incubated for 1-2 hr. After a final wash, 25 ul/well of TMB substrate (Kirkegaard & Perry Laboratories, Gaithersburg, Md.) was added to the ELISA plates. Color development was stopped after approximately 8min by adding 25 ul/well 1.0M phosphoric acid.” left out

T1 sequence (P01024 23-667 limits assumed, chain 1 of 2): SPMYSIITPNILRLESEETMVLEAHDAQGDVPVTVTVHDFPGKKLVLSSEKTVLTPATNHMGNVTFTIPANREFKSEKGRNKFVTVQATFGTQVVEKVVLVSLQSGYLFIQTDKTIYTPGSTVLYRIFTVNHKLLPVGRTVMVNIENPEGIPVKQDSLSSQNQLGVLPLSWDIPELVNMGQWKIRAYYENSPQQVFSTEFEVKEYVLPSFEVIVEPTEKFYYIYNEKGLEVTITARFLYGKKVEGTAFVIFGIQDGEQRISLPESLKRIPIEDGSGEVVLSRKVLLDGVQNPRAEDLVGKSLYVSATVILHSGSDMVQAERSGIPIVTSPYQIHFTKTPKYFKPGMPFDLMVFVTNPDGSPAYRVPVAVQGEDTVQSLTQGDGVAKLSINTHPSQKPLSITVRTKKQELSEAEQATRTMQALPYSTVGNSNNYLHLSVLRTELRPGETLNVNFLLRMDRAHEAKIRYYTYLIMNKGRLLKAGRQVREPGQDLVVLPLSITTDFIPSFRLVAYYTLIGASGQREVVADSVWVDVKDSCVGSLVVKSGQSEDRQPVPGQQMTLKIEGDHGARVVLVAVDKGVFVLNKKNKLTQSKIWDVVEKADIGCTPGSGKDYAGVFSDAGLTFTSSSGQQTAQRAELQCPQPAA
T1 sequence (P01024 749-1663 limits assumed, chain 2 of 2): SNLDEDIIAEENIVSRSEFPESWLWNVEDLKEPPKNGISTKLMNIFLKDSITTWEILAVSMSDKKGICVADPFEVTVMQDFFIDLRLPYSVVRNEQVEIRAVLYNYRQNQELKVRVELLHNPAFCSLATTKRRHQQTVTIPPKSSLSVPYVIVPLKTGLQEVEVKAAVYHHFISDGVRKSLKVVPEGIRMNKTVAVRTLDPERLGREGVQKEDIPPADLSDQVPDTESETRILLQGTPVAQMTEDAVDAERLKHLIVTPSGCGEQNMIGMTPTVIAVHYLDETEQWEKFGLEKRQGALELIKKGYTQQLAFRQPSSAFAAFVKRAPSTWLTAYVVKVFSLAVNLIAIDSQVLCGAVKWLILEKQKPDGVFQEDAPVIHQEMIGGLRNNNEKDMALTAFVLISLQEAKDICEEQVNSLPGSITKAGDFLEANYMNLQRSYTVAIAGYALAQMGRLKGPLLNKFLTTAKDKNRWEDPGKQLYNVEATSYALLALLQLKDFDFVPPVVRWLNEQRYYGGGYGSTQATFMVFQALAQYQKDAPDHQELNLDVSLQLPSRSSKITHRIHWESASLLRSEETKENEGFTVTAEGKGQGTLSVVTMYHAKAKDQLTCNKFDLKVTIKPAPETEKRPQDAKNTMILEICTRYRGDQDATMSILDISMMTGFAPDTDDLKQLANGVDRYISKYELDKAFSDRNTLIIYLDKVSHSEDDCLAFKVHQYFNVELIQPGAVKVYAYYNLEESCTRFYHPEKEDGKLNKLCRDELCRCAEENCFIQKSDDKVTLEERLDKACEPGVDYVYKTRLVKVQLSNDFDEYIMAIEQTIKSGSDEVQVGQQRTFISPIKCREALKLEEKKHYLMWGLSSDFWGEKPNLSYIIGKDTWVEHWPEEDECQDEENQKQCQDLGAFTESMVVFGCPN

IC50 (C3b [1]): 29 nM
B3: IRL21 (receptor)
CRIg variant: RPILEVPESVTGPWKGDVNLPCTYDPLQGYTQVLVKWLVQRDSDPVTIFLRDSSGDHIQIAKYRGRLHVSHKVPGDVSLQLSTLEMDDRSHYTCEVTWQTPDGNQVVRDKITELRVQKHSSKLLKTKTEAPTTMTYPLKATSTVKQSWDWTTDMDGYLGETSAGPGK
notes: also called Q60I-Q64R/G42D

IC50 (C3b [1]): 238 nM
B4: L24 (receptor)
CRIg variant: B3 CRIg variant with D44H, P45F, I60Q, R64Q
notes: also called G42D/D44H/P45F (printed G42D/D44/H/P45F)

IC50 (C3b [1]): 22 nM
B10: IRL52 (receptor)
CRIg variant: RPILEVPESVTGPWKGDVNLPCTYDPLQGYTQVLVKWLVQRGSDPVTIFLRDSSGDHIQIAKYRGRLHVSHKVPGDVSLQLSTLEMDDRSHYTCEVTWQTPDGNKVVRDKITELRVQKHSSKLLKTKTEAPTTMTYPLKATSTVKQSWDWTTDMDGYLGETSAGPGKSLP
notes: also called Q60I-Q64R/Q105K

IC50 (read off the curve) (C3b [2]): ~10 nM | IC50 (C3b [1]): 10 nM
B12: IRL41 (receptor)
CRIg variant: B10 CRIg variant with M86Y, K105Q
notes: also called RIL41; RIL 41

Continued, binder first:

B1: IRL11 (receptor)
CRIg variant: B3 CRIg variant with E8Y, D42G
notes: also called Q60I-Q64R/E8Y
IC50 (C3b [1]): 34 nM

B2: RL59 (receptor)
CRIg variant: B3 CRIg variant with D42G, I60Q, Q105R, K110N
notes: also called Q64R/Q105R/K110N
IC50 (C3b [1]): 65 nM

B5: IRL23 (receptor)
CRIg variant: B3 CRIg variant with D42G, P45F
notes: also called Q60I-Q64R/P45F
IC50 (C3b [1]): 31 nM

B6: IRL24 (receptor)
CRIg variant: B10 CRIg variant with G42D, D44H, P45F, K105Q
notes: the mutation string is cut off at the cell border on the sheet; also called Q60I/Q64R/G42D/D44H/P45F
IC50 (C3b [1]): 4 nM

B7: IRL51 (receptor)
CRIg variant: B10 CRIg variant with K105R
notes: also called Q60I-Q64R/Q105R
IC50 (C3b [1]): 24 nM

B8: IRL55 or IRL56 (last digit not sure) (receptor)
CRIg variant: B10 CRIg variant with K105Q, K110N
notes: row between IRL52 and IRL59; also called Q60I-Q64R/K110N
IC50 (C3b [1]): 33 nM

B9: YL24 (receptor)
CRIg variant: B10 CRIg variant with G42D, D44H, P45F, I60Q, R64Q, M86Y, K105Q
notes: also called M86Y/G42D/D44H/P45F
IC50 (C3b [1]): 31 nM

B11: YL59 (receptor)
CRIg variant: B10 CRIg variant with I60Q, R64Q, M86Y, K105R, K110N
notes: also called M86Y/Q105R/K110N
IC50 (C3b [1]): 18 nM
